Experimental findings from the supplement of paper PMC5998384 are described below.

The subject of data set [1] is HeLa Kyoto. Put plainly: solubility in G1/S (NP-40 vs SDS abundance) (log2 ratio); higher = more soluble. The note with it: cell cycle stage: G1/S.
Data set [2] concerns HeLa Kyoto. Nature of the data set: melting temperature (median over replicates), in situ; higher = more thermally stable.
Data set [3] deals with HeLa Kyoto. Nature of the data set: solubility change mitosis vs G1/S (difference of NP-40 vs SDS log2 ratios) (log2 ratio difference); higher = more soluble in mitosis.
The test system of data set [4] is HeLa Kyoto. Put plainly: thermal stability score vs G1/S (z-score of summed log2 fold changes over temperatures); higher = more thermally stable than in G1/S.
Where [5] appears, read: cell cycle stage: early G1 (4.5 h after nocodazole release).
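Wherever melting temperature (median over replicates), in situ is given: HeLa Kyoto cells synchronized by double thymidine or nocodazole block, proteins quantified by TMT10plex mass spectrometry, three independent biological replicates.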
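Wherever solubility change mitosis vs G1/S (difference of NP-40 vs SDS log2 ratios) is given: synchronized HeLa Kyoto cells (double thymidine block for G1/S, nocodazole release for mitosis), protein amounts in NP-40 versus SDS lysates quantified by mass spectrometry, three biological replicates.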
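Wherever solubility in G1/S (NP-40 vs SDS abundance) is given: HeLa Kyoto cells arrested at G1/S by double thymidine block, proteins quantified by TMT10plex mass spectrometry in mild NP-40 versus SDS extracts, three biological replicates.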
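Wherever thermal stability score vs G1/S (z-score of summed log2 fold changes over temperatures) is given: synchronized HeLa Kyoto cells, proteins quantified by TMT10plex mass spectrometry, three biological replicates, mitosis taken 0.5 h after nocodazole release, G1/S directly after double thymidine block.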

“MIAAQLLAYYFTELKDDQVKKIDKYLYAMRLSDETLIDIMTRFRKEMKNGLSRDFNPTATVKMLPTFVRSIPDGSEKGDFIALDLGGSSFRILRVQVNHEKNQNVHMESEVYDTPENIVHGSGSQLFDHVAECLGDFMEKRKIKDKKLPVGFTFSFPCQQSKIDEAILITWTKRFKASGVEGADVVKLLNKAIKKRGDYDANIVAVVNDTVGTMMTCGYDDQHCEVGLIIGTGTNACYMEELRHIDLVEGDEGRMCINTEWGAFGDDGSLEDIRTEFDREIDRGSLNPGKQLFEKMVSGMYLGELVRLILVKMAKEGLLFEGRITPELLTRGKFNTSDVSAIEKNKEGLHNAKEILTRLGVEPSDDDCVSVQHVCTIVSFRSANLVAATLGAILNRLRDNKGTPRLRTTVGVDGSLYKTHPQYSRRFHKTLRRLVPDSDVRFLLSESGSGKGAAMVTAVAYRLAEQHRQIEETLAHFHLTKDMLLEVKKRMRAEMELGLRKQTHNNAVVKMLPSFVRRTPDGTENGDFLALDLGGTNFRVLLVKIRSGKKRTVEMHNKIYAIPIEIMQGTGEELFDHIVSCISDFLDYMGIKGPRMPLGFTFSFPCQQTSLDAGILITWTKGFKATDCVGHDVVTLLRDAIKRREEFDLDVVAVVNDTVGTMMTCAYEEPTCEVGLIVGTGSNACYMEEMKNVEMVEGDQGQMCINMEWGAFGDNGCLDDIRTHYDRLVDEYSLNAGKQRYEKMISGMYLGEIVRNILIDFTKKGFLFRGQISETLKTRGIFETKFLSQIESDRLALLQVRAILQQLGLNSTCDDSILVKTVCGVVSRRAAQLCGAGMAAVVDKIRENRGLDRLNVTVGVDGTLYKLHPHFSRIMHQTVKELSPKCNVSFLLSEDGSGKGAALITAVGVRLRTEASS [HK1]”: the “solubility in G1/S (log2)” value in the data set on HeLa Kyoto [1] was -0.0302. The melting temperature with HeLa Kyoto [2] (cell cycle stage: G1/S) stood at 51.5 °C; in the data set with HeLa Kyoto [2] (cell cycle stage: mitosis) it was 51.9 °C. Further, the “solubility change mitosis (log2)” value in the data set on HeLa Kyoto [3] was -0.149. The thermal stability score with HeLa Kyoto [4] (setting [5]) is -0.647; in the data set on HeLa Kyoto [4] (cell cycle stage: mitosis), -0.641.

Take “MAEEEVAKLEKHLMLLRQEYVKLQKKLAETEKRCALLAAQANKESSSESFISRLLAIVADLYEQEQYSDLKIKVGDRHISAHKFVLAARSDSWSLANLSSTKELDLSDANPEVTMTMLRWIYTDELEFREDDVFLTELMKLANRFQLQLLRERCEKGVMSLVNVRNCIRFYQTAEELNASTLMNYCAEIIASHWDDLRKEDFSSMSAQLLYKMIKSKTEYPLHKAIKVEREDVVFLYLIEMDSQLPGKLNEADHNGDLALDLALSRRLESIATTLVSHKADVDMVDKSGWSLLHKGIQRGDLFAATFLIKNGAFVNAATLGAQETPLHLVALYSSKKHSADVMSEMAQIAEALLQAGANPNMQDSKGRTPLHVSIMAGNEYVFSQLLQCKQLDLELKDHEGSTALWLAVQHITVSSDQSVNPFEDVPVVNGTSFDENSFAARLIQRGSHTDAPDTATGNCLLQRAAGAGNEAAALFLATNGAHVNHRNKWGETPLHTACRHGLANLTAELLQQGANPNLQTEEALPLPKEAASLTSLADSVHLQTPLHMAIAYNHPDVVSVILEQKANALHATNNLQIIPDFSLKDSRDQTVLGLALWTGMHTIAAQLLGSGAAINDTMSDGQTLLHMAIQRQDSKSALFLLEHQADINVRTQDGETALQLAIRNQLPLVVDAICTRGADMSVPDEKGNPPLWLALANNLEDIASTLVRHGCDATCWGPGPGGCLQTLLHRAIDENNEPTACFLIRSGCDVNSPRQPGANGEGEEEARDGQTPLHLAASWGLEETVQCLLEFGANVNAQDAEGRTPIHVAISSQHGVIIQLLVSHPDIHLNVRDRQGLTPFACAMTFKNNKSAEAILKRESGAAEQVDNKGRNFLHVAVQNSDIESVLFLISVHANVNSRVQDASKLTPLHLAVQAGSEIIVRNLLLAGAKVNELTKHRQTALHLAAQQDLPTICSVLLENGVDFAAVDENGNNALHLAVMHGRLNNIRVLLTECTVDAEAFNLRGQSPLHILGQYGKENAAAIFDLFLECMPGYPLDKPDADGSTVLLLAYMKGNANLCRAIVRSGARLGVNNNQGVNIFNYQVATKQLLFRLLDMLSKEPPWCDGSYCYECTARFGVTTRKHHCRHCGRLLCHKCSTKEIPIIKFDLNKPVRVCNICFDVLTLGGVS [ANKFY1]”: the “solubility in G1/S (log2)” value with HeLa Kyoto [1] was -0.0647. Moreover, the melting temperature in the data set with HeLa Kyoto [2] (cell cycle stage: G1/S) amounted to 48.8 °C; with HeLa Kyoto [2] (cell cycle stage: mitosis), 49.3 °C. The “solubility change mitosis (log2)” value in the data set on HeLa Kyoto [3] was -0.175. Moreover, the thermal stability score in the data set with HeLa Kyoto [4] (setting [5]) stood at 0.358; in the data set on HeLa Kyoto [4] (cell cycle stage: mitosis), 1.34.

In the case of “MAQHFSLAACDVVGFDLDHTLCRYNLPESAPLIYNSFAQFLVKEKGYDKELLNVTPEDWDFCCKGLALDLEDGNFLKLANNGTVLRASHGTKMMTPEVLAEAYGKKEWKHFLSDTGMACRSGKYYFYDNYFDLPGALLCARVVDYLTKLNNGQKTFDFWKDIVAAIQHNYKMSAFKENCGIYFPEIKRDPGRYLHSCPESVKKWLRQLKNAGKILLLITSSHSDYCRLLCEYILGNDFTDLFDIVITNALKPGFFSHLPSQRPFRTLENDEEQEALPSLDKPGWYSQGNAVHLYELLKKMTGKPEPKVVYFGDSMHSDIFPARHYSNWETVLILEELRGDEGTRSQRPEESEPLEKKGKYEGPKAKPLNTSSKKWGSFFIDSVLGLENTEDSLVYTWSCKRISTYSTIAIPSIEAIAELPLDYKFTRFSSSNSKTAGYYPNPPLVLSSDETLISK [NT5DC1]”, the “solubility in G1/S (log2)” value with HeLa Kyoto [1] was determined as 0.0982. Also, the melting temperature in the data set on HeLa Kyoto [2] (cell cycle stage: G1/S) came out at 55.5 °C; in the data set with HeLa Kyoto [2] (cell cycle stage: mitosis) it was 55.7 °C. For the same substance, the “solubility change mitosis (log2)” value in the data set with HeLa Kyoto [3] is -0.212. Further, the thermal stability score is 0.00809 in the data set on HeLa Kyoto [4] (setting [5]) and -0.565 with HeLa Kyoto [4] (cell cycle stage: mitosis).

“MWPGNAWRAALFWVPRGRRAQSALAQLRGILEGELEGIRGAGTWKSERVITSRQGPHIRVDGVSGGILNFCANNYLGLSSHPEVIQAGLQALEEFGAGLSSVRFICGTQSIHKNLEAKIARFHQREDAILYPSCYDANAGLFEALLTPEDAVLSDELNHASIIDGIRLCKAHKYRYRHLDMADLEAKLQEAQKHRLRLVATDGAFSMDGDIAPLQEICCLASRYGALVFMDECHATGFLGPTGRGTDELLGVMDQVTIINSTLGKALGGASGGYTTGPGPLVSLLRQRARPYLFSNSLPPAVVGCASKALDLLMGSNTIVQSMAAKTQRFRSKMEAAGFTISGASHPICPVMLGDARLASRMADDMLKRGIFVIGFSYPVVPKGKARIRVQISAVHSEEDIDRCVEAFVEVGRLHGALP [GCAT]”: the “solubility in G1/S (log2)” value in the data set on HeLa Kyoto [1] stood at 0.194. Also, the melting temperature in the data set on HeLa Kyoto [2] (cell cycle stage: G1/S) and in the data set with HeLa Kyoto [2] (cell cycle stage: mitosis) was 53.3 °C throughout. Further, the “solubility change mitosis (log2)” value in the data set with HeLa Kyoto [3] is -0.0435. In addition, the thermal stability score with HeLa Kyoto [4] (setting [5]) is -0.218; in the data set on HeLa Kyoto [4] (cell cycle stage: mitosis), -1.56.

Regarding AKAP9, in the data set with HeLa Kyoto [1], the “solubility in G1/S (log2)” value was -0.0993. In addition, the results for the melting temperature in the data set on HeLa Kyoto [2] (cell cycle stage: G1/S) and in the data set with HeLa Kyoto [2] (cell cycle stage: mitosis) were 49.3 °C and 49.6 °C, respectively. In the data set on HeLa Kyoto [3], the “solubility change mitosis (log2)” value is -0.0345. For the same substance, the thermal stability score worked out at 1.11 with HeLa Kyoto [4] (setting [5]) and 1.77 in the data set on HeLa Kyoto [4] (cell cycle stage: mitosis).

Regarding “MPRVVPDQRSKFENEEFFRKLSRECEIKYTGFRDRPHEERQARFQNACRDGRSEIAFVATGTNLSLQFFPASWQGEQRQTPSREYVDLEREAGKVYLKAPMILNGVCVIWKGWIDLQRLDGMGCLEFDEERAQQEDALAQQAFEEARRRTREFEDRDRSHREEMEVRVSQLLAVTGKKTTRP [CBFB]”, in the data set on HeLa Kyoto [1], the “solubility in G1/S (log2)” value is 0.199. The melting temperature in the data set on HeLa Kyoto [2] (cell cycle stage: G1/S) stood at 49 °C; with HeLa Kyoto [2] (cell cycle stage: mitosis), 51.2 °C. Moreover, in the data set on HeLa Kyoto [3], the “solubility change mitosis (log2)” value was -0.072. Besides, the thermal stability score in the data set on HeLa Kyoto [4] (setting [5]) came out at 0.755; in the data set with HeLa Kyoto [4] (cell cycle stage: mitosis), 0.955.
